Test results taken from PMC3860269.

Target: in vitro assembled HIV-1 CA–NC complexes bearing the capsid change N74D (HIV-1)
Assay: co-sedimentation

GFP-Nup98 (from UniProt P52948 1-880) (natural protein)
fold decrease of binding against wild type CA–NC complexes: 2 fold
